In general, Km refers to the concentration of substrate that gives half-maximal velocity. As a reminder, the Ki is the equilibrium dissociation constant of an inhibitor or competing ligand from its target. A higher Ki goes with lower affinity.

Where two headings read alike, the source gives them in different places.

The values below come from patent US20260275304A1, “METHODS AND COMPOSITIONS FOR GLYPHOSATE TOLERANCE IN PLANTS” (Monsanto Technology LLC, priority 2023, published 2026).

The subject of series [1] is maize EPSPS. Nature of the series: In vitro characterization of EPSPS mutants (EnzChek phosphate assay, Michaelis-Menten kinetics, glyphosate Ki). The settings on record: for Km: apparent Km, mean±S.E.; for Ki: inhibitory constant for glyphosate, no unit in table (around 800 μM). The series is classed as biochemical, Zea mays. How it is done: Activity was determined by quantifying release of Pi, coupled to a reaction with MESG, catalyzed by purine-nucleoside phosphorylase using the EnzChek Phosphate Assay Kit from Invitrogen, first published in 1992. 95 μL of master mix was added to each well and 5 μL of the varied substrate dilutions were multi-channeled into the plate to start the reaction simultaneously for all conditions. Absorbance measurements at 360 nm were taken every 10 seconds for 3 minutes to capture the initial reaction rate of each condition. Varying levels of substrate were added to generate the resulting reaction rate curves. Each condition was performed in triplicate. Ki was determined as previously described (Lu, et al., Protein Engineering, Design and Selection 30:395-399 (2017)). Data was fit to the Michaelis-Menten kinetics equation and were also validated through GraphPad Prism's built-in function for each variant.
For protein expression of EPSPS and its variants, E. coli BL21 (DE3) was used as the expression host. Electrocompetent cells were transformed with the corresponding constructed plasmids, pET28a (+) with selected EPSPS variants (wild-type, TIPS, TIPS P126S, TIPS K296R, TIPS P126S/K296R). A single colony of an E. coli BL21 (DE3) strain harboring one of the constructed plasmids was inoculated into 2 mL of Luria Bertani broth (LB) medium with 50 μg/mL kanamycin and grown overnight at 37° C./225 rpm. The overnight-grown culture (using 100 μl) was scaled up with 2000-fold dilution in a 500-mL triple baffled shake flask and grown to a cell density of 0.8 (optical density [OD600]) at 37° C./225 rpm. Protein expression was induced by adding 0.2 mM of isopropyl β-D-1-thiogalactopyranoside (IPTG) and cells were cultured for 24 hours at 20° C./225 rpm. The induced cell culture was harvested by centrifugation at 4,000 g and 4° C. for 20 mins. Cell pellets were then resuspended in 25 mL of Dulbecco's Phosphate Buffered Saline (DPBS) (Thermo Fisher Scientific, Waltham, MA) pH 7.0 buffer containing 10 mM imidazole, 1 g/L of lysozyme and 5 μl of Pierce™ Universal Nuclease (Thermo Fisher Scientific, Waltham, MA), followed by mixing on a rocker for 30 mins at 4° C. Subsequently, cells were lysed by sonication and the resulting cell lysate was centrifuged at 14,000 g and 4° C. for 20 minutes to obtain the supernatant that contains soluble proteins. Target proteins from the supernatant was purified by HisPur™ Ni-NTA Resin (Thermo Fisher Scientific, Waltham, MA) according to the manufacturer's instruction.
The eluate was dialyzed with 3C protease added to the dialysis cassette, into the appropriate buffer followed by size-exclusion fast protein liquid chromatography. All EPSP synthase variants were stored in 20 mM Tris (pH 7.5), 100 mM NaCl and 10 mM β-mercaptoethanol. The protein concentration was then determined by using the Coomassie Plus Bradford Assay kit (Thermo Fisher Scientific) and the Infinite M200 PRO microplate reader (Tecan, Männedorf, Switzerland) to measure the absorbance of assay mixtures. The presence and purity of the purified proteins were assessed by sodium dodecyl sulfate-polyacrylamide gel electrophoresis.
Enzymatic activity, including inhibitory constant Ki, for EPSPS and TIPS closely corroborate values determined by previous reports. Mutations P126S and K296R have beneficial effects on their own to both Km and kcat and are additive when combined, similar to the observations of the in vivo growth characterization. Furthermore, the high Ki is maintained for each of the variants, showing similar or slightly higher values of around 800 μM compared to the starting point, TIPS. These findings confirm the phenotype endowed by the dual-trait selection pressure employed during the directed evolution campaigns. Kinetic parameters of maize EPSPS with mutations discovered through directed evolution. In Table 4, initial velocity data were measured in triplicate and fit to the Michaelis-Menten equation. […]

For series [2], the system named is transgenic maize plants. In words: Maize transformation with glyphosate selection, plantlet recovery and quality checks. Format: in vivo, Zea mays. To be noted: for Number of young plants passing quality control checks: in vivo; for Number of plantlets generated: under glyphosate selection, same amount of starting material. An excerpt: Maize was used as a model system to test the functionality of the EPSPS variants because of detailed previous characterization of glyphosate tolerance in maize and a suitable transgenic plant generation protocol that relies on glyphosate. Plant transformation vectors were generated in which the native maize EPSPS sequence was used, which includes the native gene promoter elements, the native introns and exons and the native 3′ untranslated region and introduced mutations that corresponded to each of the selected amino acid changes. The native sequence was used to mimic as closely as possible how the selected EPSPS variants would perform if the variants were introduced directly in the genome without the help of strong expression elements. The following variants were selected for testing in a transgenic maize system: TIPS (as a control); TIPS-P126S-M217L-K296R; TIPS-P126S-K296R; T102I-P126S-K296R (where only the T102I change is present); P106S-P126S-K296R (where only the P106S change is present); and P126S-K296R (where neither of the TIPS changes are present).
Transgenic maize plants that expressed each of the six EPSPS variants were generated to determine if the variants conferred glyphosate tolerance to plants. The full DNA sequence encoding TIPS EPSPS (SEQ ID NO:1) was cloned from maize genomic DNA. In this sequence, the promoter and 5′ UTR are nucleotides 1:2556; the chloroplast transit peptide sequence is nucleotides 2557:2742; EXON 1 is nucleotides 2743:2856; INTRON 1 is nucleotides 2857:3384; EXON 2 is nucleotides 3385:3626; INTRON 2 is nucleotides 3627:3725; EXON 3 is nucleotides 3726:3879; INTRON 3 is nucleotides 3880:4152; EXON 4 is nucleotides 4153:4367; INTRON 4 is nucleotides 4368:4877; EXON 5 is nucleotides 4878:4995; INTRON 5 is nucleotides 4996:5155; EXON 6 is nucleotides 5156:5366; INTRON 6 is nucleotides 5367:5446; EXON 7 is nucleotides 5447:5508; INTRON 7 is nucleotides 5509:5617; EXON 8 is nucleotides 5618:5836; and the 3′ UTR is nucleotides 5837:6368. Mutations were then introduced into the EPSPS coding sequence in order to produce each of the six EPSPS variants to be tested. These mutated full genomic DNA sequences were then each cloned as a single expression cassette into plant transformation vectors.
Agrobacterium tumefaciens-mediated plant transformation was performed using methods known in the art. Glyphosate selection was used to select for transgenic events containing the transgene of interest and further screened for only those EPSPS variants that provided effective glyphosate tolerance in a plant cell. While all six EPSPS variants began the transformation process with the same amount of starting maize cellular material, there were differences in the number of small plantlets recovered that were capable of being transplanted to greenhouse soil media (Table 4). Transgenic events were further analyzed to determine transgene copy number. Healthy events with single copy of the transgene of interest were grown in the greenhouse soil media. Only three of the six EPSPS variants had more than one plant surviving. Up to twenty-five of these developing R0 plants were transplanted to larger pots and allowed to grow to maturity for seed collection in the greenhouse.

Setting [3] is: PEP at saturation (roughly 10 times its Km), read-out: Km (S3P).
[4] abbreviates: S3P at saturation (roughly 10 times its Km), read-out: Km (PEP).

B1: TIPS-P126S: maize EPSPS variant, SEQ ID NO:15 (protein)
chain: AGAEEIVLQPIKEISGTVKLPGSKSLSNRILLLAALSEGTTVVDNLLNSEDVHYMLGALRTLGLSVEADKAAKRAVVVGCGGKFPVEDSKEEVQLFLGNAGIAMRSLTAAVTAAGGNATYVLDGVSRMRERPIGDLVVGLKQLGADVDCFLGTDCPPVRVNGIGGLPGGKVKLSGSISSQYLSALLMAAPLALGDVEIEIIDKLISIPYVEMTLRLMERFGVKAEHSDSWDRFYIKGGQKYKSPKNAYVEGDASSASYFLAGAAITGGTVTVEGCGTTSLQGDVKFAEVLEMMGAKVTWTETSVTVTGPPREPFGRKHLKAIDVNMNKMPDVAMTLAVVALFADGPTAIRDVASWRVKETERMVAIRTELTKLGASVEEGPDYCIITPPEKLNVTAIDTYDDHRMAMAFSLAACAEVPVAIRDPGCTRKTFPDYFDVLSTFVKN
modifications: Zea mays
In the case of B1, the Km turned out to be 28.2 µM in series [1] (setting [3]) and 13.7 µM in series [1] (setting [4]). The molecule also had a Ki in series [1] of 859 µM.

B2: T102I-P126S-K296R: maize EPSPS variant, SEQ ID NO:12 (protein)
chain: AGAEEIVLQPIKEISGTVKLPGSKSLSNRILLLAALSEGTTVVDNLLNSEDVHYMLGALRTLGLSVEADKAAKRAVVVGCGGKFPVEDSKEEVQLFLGNAGIAMRPLTAAVTAAGGNATYVLDGVSRMRERPIGDLVVGLKQLGADVDCFLGTDCPPVRVNGIGGLPGGKVKLSGSISSQYLSALLMAAPLALGDVEIEIIDKLISIPYVEMTLRLMERFGVKAEHSDSWDRFYIKGGQKYKSPKNAYVEGDASSASYFLAGAAITGGTVTVEGCGTTSLQGDVKFAEVLEMMGARVTWTETSVTVTGPPREPFGRKHLKAIDVNMNKMPDVAMTLAVVALFADGPTAIRDVASWRVKETERMVAIRTELTKLGASVEEGPDYCIITPPEKLNVTAIDTYDDHRMAMAFSLAACAEVPVAIRDPGCTRKTFPDYFDVLSTFVKN
modifications: Zea mays
As for B2, in series [2], the “Number of young plants passing quality control checks” value was found to be 1 and the “Number of plantlets generated” value was 69.

B3: TIPS-K296R: maize EPSPS variant, SEQ ID NO:16 (protein)
chain: AGAEEIVLQPIKEISGTVKLPGSKSLSNRILLLAALSEGTTVVDNLLNSEDVHYMLGALRTLGLSVEADKAAKRAVVVGCGGKFPVEDSKEEVQLFLGNAGIAMRSLTAAVTAAGGNATYVLDGVPRMRERPIGDLVVGLKQLGADVDCFLGTDCPPVRVNGIGGLPGGKVKLSGSISSQYLSALLMAAPLALGDVEIEIIDKLISIPYVEMTLRLMERFGVKAEHSDSWDRFYIKGGQKYKSPKNAYVEGDASSASYFLAGAAITGGTVTVEGCGTTSLQGDVKFAEVLEMMGARVTWTETSVTVTGPPREPFGRKHLKAIDVNMNKMPDVAMTLAVVALFADGPTAIRDVASWRVKETERMVAIRTELTKLGASVEEGPDYCIITPPEKLNVTAIDTYDDHRMAMAFSLAACAEVPVAIRDPGCTRKTFPDYFDVLSTFVKN
modifications: Zea mays
As for B3, the Km in series [1] (setting [3]) turned out to be 16.5 µM; in series [1] (setting [4]), 24 µM. This molecule registered a Ki in series [1] of 841 µM.

B4: P106S-P126S-K296R: maize EPSPS variant, SEQ ID NO:13 (protein)
chain: AGAEEIVLQPIKEISGTVKLPGSKSLSNRILLLAALSEGTTVVDNLLNSEDVHYMLGALRTLGLSVEADKAAKRAVVVGCGGKFPVEDSKEEVQLFLGNAGTAMRSLTAAVTAAGGNATYVLDGVSRMRERPIGDLVVGLKQLGADVDCFLGTDCPPVRVNGIGGLPGGKVKLSGSISSQYLSALLMAAPLALGDVEIEIIDKLISIPYVEMTLRLMERFGVKAEHSDSWDRFYIKGGQKYKSPKNAYVEGDASSASYFLAGAAITGGTVTVEGCGTTSLQGDVKFAEVLEMMGARVTWTETSVTVTGPPREPFGRKHLKAIDVNMNKMPDVAMTLAVVALFADGPTAIRDVASWRVKETERMVAIRTELTKLGASVEEGPDYCIITPPEKLNVTAIDTYDDHRMAMAFSLAACAEVPVAIRDPGCTRKTFPDYFDVLSTFVKN
modifications: Zea mays
Regarding B4, in series [2], the “Number of young plants passing quality control checks” value worked out at 0 and the “Number of plantlets generated” value is recorded as 39.

B5: P126S-K296R: maize EPSPS variant, SEQ ID NO:14 (protein)
chain: AGAEEIVLQPIKEISGTVKLPGSKSLSNRILLLAALSEGTTVVDNLLNSEDVHYMLGALRTLGLSVEADKAAKRAVVVGCGGKFPVEDSKEEVQLFLGNAGTAMRPLTAAVTAAGGNATYVLDGVSRMRERPIGDLVVGLKQLGADVDCFLGTDCPPVRVNGIGGLPGGKVKLSGSISSQYLSALLMAAPLALGDVEIEIIDKLISIPYVEMTLRLMERFGVKAEHSDSWDRFYIKGGQKYKSPKNAYVEGDASSASYFLAGAAITGGTVTVEGCGTTSLQGDVKFAEVLEMMGARVTWTETSVTVTGPPREPFGRKHLKAIDVNMNKMPDVAMTLAVVALFADGPTAIRDVASWRVKETERMVAIRTELTKLGASVEEGPDYCIITPPEKLNVTAIDTYDDHRMAMAFSLAACAEVPVAIRDPGCTRKTFPDYFDVLSTFVKN
modifications: Zea mays
Turning to B5, in series [2], the “Number of young plants passing quality control checks” value is 1 and the “Number of plantlets generated” value was determined as 11.
